Where “and” joins values, the source holds several entries; their conditions need not be identical. Equal values may be shown once. One block for each molecule: values may come before it. Where no end group is shown, it is not given here.
B2: coiled coil B7-H6 (B7-H6CC) (ligand)
chain: ITGDLKVEMMAGGTQITPLNDNVTIFCNIFYSQPLNITSMGITWFWKSLTFDKEVKVFEFFGDHQEAFRPGAIVSPWRLKSGDASLRLPGIQLEEAGEYRCEVVVTPLKAQGTVQLEVVASPASRLLLDQVGMKENEDKYMCESSGFYPEAINITWEKQTQKFPHPIEISEDVITGPTIKNMDGTFNVTSSLKLNSSQEDPGTVYQCVVRHASLHTPLRSNFTGTVAALKEKVAALKEKVAALKEKVAALKEK
notes: additional N-terminal residues from the vector; B7-H6, extracellular domain, residues D25-T244 with stabilizing mutation C212S; GT and the (VAALKEK)4 coiled coil motif (peptide K), written out from -GT(VAALKEK)4H8G; C-terminus is -GT(VAALKEK)4H8G: the His8 is followed by a final G. In the flow cytometry the protein was labelled with AlexaFluor647 by NHS chemistry; Six N-glycosylation sites; also …

Columns and labels:
NKp30 (Homo sapiens) = NKp30 (Homo sapiens) (UniProt O14931); assay: BLI; settings: cited from earlier work
[1] = biological target: B2; assay: flow cytometry on cells; PolCC mixed with AlexaFluor647-labelled B7-H6CC and scFvCC (AlexaFluor488-labelled or not); complexes carried to CAIX-expressing cells by scFvCC and B7-H6CC detected on the cells; 45 min on ice, 1 µM polymer; settings: both partners purified
[2] = biological target: the molecule itself; assay: AUC; sedimentation velocity of B7-H6CC alone; 20 °C, 48,000 rpm, absorbance 280 nm, SEC buffer; monomer-dimer equilibrium
[3] = biological target: T1, wild-type B7-H6 (extracellular domain of B7-H6 without the coiled coil tag, C212S) (UniProt Q68D85 25-245, C212S); assay: ITC; NKp30 (124-182 µM) injected into a cell with the B7-H6 variant (15.6-25.0 µM); 25 °C; 10 mM HEPES, 150 mM NaCl, 10 mM NaN3, pH 7.5; fitted as A + B <=> AB, N = 1 - incompetent fraction of B7-H6; settings: both partners purified
T1 construct: B7-H6, extracellular domain, residues D25-L245 with stabilizing mutation C212S; cloned as described previously [37]; also called non-modified B7-H6; soluble B7-H6 construct; source: HEK293T (suspension-adapted), transient transfection, secreted, purified (IMAC, SEC)
T1 sequence (looked up): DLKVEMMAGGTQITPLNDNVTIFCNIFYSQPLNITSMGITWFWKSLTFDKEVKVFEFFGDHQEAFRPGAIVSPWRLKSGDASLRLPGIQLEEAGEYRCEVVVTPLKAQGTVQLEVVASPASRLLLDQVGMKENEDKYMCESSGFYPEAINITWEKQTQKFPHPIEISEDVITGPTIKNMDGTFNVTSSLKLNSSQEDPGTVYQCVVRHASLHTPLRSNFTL

[4] = biological target: B2; assay: as above; settings: both partners purified
[5] = biological target: T2, high-affinity B7-H6 (haB7-H6; S60Y, F82W, L129Y) (UniProt Q68D85 25-245, C212S | S60Y | F82W | L129Y); assay: as above; settings: both partners purified
T2 construct: same doubt on the C-terminal limit (L245 or T244); also called untagged haB7-H6; source: HEK293T (suspension-adapted), transient transfection, secreted, purified (IMAC, SEC)
T2 sequence (looked up): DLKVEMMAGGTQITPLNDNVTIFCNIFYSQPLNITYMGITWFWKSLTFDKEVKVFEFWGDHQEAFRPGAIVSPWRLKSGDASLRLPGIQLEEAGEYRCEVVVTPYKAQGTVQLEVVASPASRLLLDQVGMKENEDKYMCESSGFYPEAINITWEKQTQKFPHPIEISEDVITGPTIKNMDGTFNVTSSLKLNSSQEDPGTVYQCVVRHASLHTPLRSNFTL

[6] = biological target: T3, high-affinity coiled coil B7-H6 (haB7-H6CC; S60Y, F82W, L129Y) (UniProt Q68D85 25-244, C212S | S60Y | F82W | L129Y); assay: as above; settings: both partners purified
T3 construct: additional N-terminal residues from the vector, as in B7-H6CC; GT and the (VAALKEK)4 coiled coil motif, as in B7-H6CC; C-terminus -GT(VAALKEK)4H8G; source: HEK293T (suspension-adapted), transient transfection, secreted, purified (IMAC, SEC); not shown: His8 (H8G), C-terminal, kept
T3 sequence: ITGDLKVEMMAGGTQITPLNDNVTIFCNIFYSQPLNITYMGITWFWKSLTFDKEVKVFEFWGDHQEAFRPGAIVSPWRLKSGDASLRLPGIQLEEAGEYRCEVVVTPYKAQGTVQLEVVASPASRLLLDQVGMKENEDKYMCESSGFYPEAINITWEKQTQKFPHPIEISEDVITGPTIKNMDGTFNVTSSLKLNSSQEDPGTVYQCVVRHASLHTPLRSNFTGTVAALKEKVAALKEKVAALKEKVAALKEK

[7] = biological target: B2; assay: AUC; sedimentation velocity, B7-H6CC titrated with NKp30; 20 °C, 48,000 rpm, 280 nm, SEC buffer; sw isotherm fitted with A + B <=> AB; settings: both partners purified
[8] = biological target: B2; assay: AUC; sedimentation velocity, PolCC+ titrated with B7-H6CC; 20 °C, 42,000 rpm, 280 nm, SEC buffer; settings: both partners purified

Molecule: B7-H6 IgV domain (from UniProt Q68D85)
Kd (NKp30 (Homo sapiens)): 409 nM

Molecule: B2
stoichiometry N [2]: 2

B3: NKp30 ligand-binding domain (residues L19-E130, receptor ectodomain without stalk region) (receptor, UniProt O14931 19-130, looked up)
chain: LWVSQPPEIRTLEGSSAFLPCSFNASQGRLAIGSVTWFRDEVVPGKEVRNGTPEFRGRLAPLASSRFLHDHQAELHIRDVRGHDASIYVCRVEVLGLGVGTGNGTRLVVEKE
notes: cloned as described previously [37]; source: HEK293T (suspension-adapted), transient transfection, secreted, purified (IMAC, SEC)
Kd [3]: 668 nM | dH [3]: -11.5 kcal/mol | stoichiometry N [3]: 0.88 | Kd [4]: 787 nM | dH [4]: -11.2 kcal/mol | stoichiometry N [4]: 0.74 | Kd [5]: 115 nM | dH [5]: -12.7 kcal/mol | stoichiometry N [5]: 0.91 | Kd [6]: 259 nM | dH [6]: -11.8 kcal/mol | stoichiometry N [6]: 0.65 | Kd [7]: 895 nM | stoichiometry N [7]: 0.78 and 1

Now from value to molecule:

binding result [1]: binds
B1: PolCC: pHPMA copolymer conjugated with (VAALEKE)4 coiled coil peptides (other)
peptide: VAALEKEVAALEKEVAALEKEVAALEKE
modifications: also: attached to pHPMA copolymer via azide-alkyne cycloaddition, site not given here
notes: (VAALEKE)4 coiled coil peptide, written out from the printed repeat; 56 kDa conjugate with approximately eight coiled coil peptides on each polymer chain (40% w/w); the polymer also carries biotin; The polymer itself is no protein; also called coiled coil peptide-polymer conjugate; pHPMA-(VAALEKE)4; source: synthetic peptide attached to HPMA copolymer by click chemistry, as described previously …

binding result [8]: binds
B4: PolCC+: HPMA copolymer of increased length conjugated with (VAALEKE)4 coiled coil peptides (other)
peptide: VAALEKEVAALEKEVAALEKEVAALEKE
modifications: also: attached to HPMA copolymer via copper-free click chemistry, site not given here
notes: (VAALEKE)4 coiled coil peptide, written out from the printed repeat; 130 kDa conjugate with approximately ten coiled coil peptides on each polymer chain (26% w/w); the polymer also carries biotin; Synthesis details are in File S1; source: synthetic peptide attached to HPMA copolymer (RAFT polymerization, copper-free click chemistry); purified by SEC; copies: 10

Source: publication PMC8615638, “Tumor Marker B7-H6 Bound to the Coiled Coil Peptide-Polymer Conjugate Enables Targeted Therapy by Activating Human Natural Killer Cells” (Biomedicines, 2021)
